Measured values published in publication PMC5506036, “SmMYB36, a Novel R2R3-MYB Transcription Factor, Enhances Tanshinone Accumulation and Decreases Phenolic Acid Content in Salvia miltiorrhiza Hairy Roots”.

B1: C4H1-MBS3 (dsDNA)
DNA 1: GTTTAAAAGACATAACTGAGTTATCGAACA
DNA 2: TGTTCGATAACTCAGTTATGTCTTTTAAAC
B2: MBSI-2 core (dsDNA)
DNA 1: AAAAAACGGTTA
DNA 2: TAACCGTTTTTT
B3: MBS1 core (dsDNA)
DNA 1: CAACTG
DNA 2: CAGTTG
B4: IPPI-MBS1 (dsDNA)
DNA 1: CCGCCGCCGCCACAACTGTAATGGTGCTTT
DNA 2: AAAGCACCATTACAGTTGTGGCGGCGGCGG
B5: MCT-MBS2-1 (dsDNA)
DNA 1: AGGAAACCCTCACGGTCACCTTAACATTCA
DNA 2: TGAATGTTAAGGTGACCGTGAGGGTTTCCT
B6: HPPR-MRE-2 (dsDNA)
DNA 1: AATGATTGATTTAACCTAATCATTGTGAAACC
DNA 2: GGTTTCACAATGATTAGGTTAAATCAATCATT
B7: DXR-MRE (dsDNA)
DNA 1: CCCCTTTTACAAAACCTAATTTCCCCCCAT
DNA 2: ATGGGGGGAAATTAGGTTTTGTAAAAGGGG
B8: MBSII core (dsDNA)
DNA 1: AAAAGTTAGTTA
DNA 2: TAACTAACTTTT
B9: GGPPS1-MRE (dsDNA)
DNA 1: TTTTTCGATAGTAACCTAATTTTCTGTAGTG
DNA 2: CACTACAGAAAATTAGGTTACTATCGAAAAA
B10: C4H1-MBS1 (dsDNA)
DNA 1: TCTTTAAAACTCCAACTGATATGATGTTCG
DNA 2: CGAACATCATATCAGTTGGAGTTTTAAAGA
B11: MCT-MBS3-1 (dsDNA)
DNA 1: TATCATCTTCGGTAACTGATACTCAAGGAT
DNA 2: ATCCTTGAGTATCAGTTACCGAAGATGATA
B12: HMGS1-MBS3 (dsDNA)
DNA 1: GTGTGTGCTGTTTAACTGATCCGCTATTTC
DNA 2: GAAATAGCGGATCAGTTAAACAGCACACAC
B13: HPPR-MRE-1 (dsDNA)
DNA 1: TTTTGTGGGACAAACCTAAAAAGAAACTGAA
DNA 2: TTCAGTTTCTTTTTAGGTTTGTCCCACAAAA
B14: MBSI-1 core (dsDNA)
DNA 1: AAAAAACCGTTA
DNA 2: TAACGGTTTTTT
B15: 4CL2-MRE (dsDNA)
DNA 1: TTTGTAGAGTTGAACCTAAAGATGATGGGTG
DNA 2: CACCCATCATCTTTAGGTTCAACTCTACAAA
B16: MCT-MBS3-2 (dsDNA)
DNA 1: AACTAGATGAATTAACTGGTAGCAATTACC
DNA 2: GGTAATTGCTACCAGTTAATTCATCTAGTT
B17: MCT-MBS2-2 (dsDNA)
DNA 1: AAAACAGGCATCCGGTCAGTAAGTCCGCAT
DNA 2: ATGCGGACTTACTGACCGGATGCCTGTTTT
B18: GGPPS1-MBS2 (dsDNA)
DNA 1: TTAAAATCGTTACGGTCATACCACGGAAAC
DNA 2: GTTTCCGTGGTATGACCGTAACGATTTTAA

Biological target: T1, SmMYB36 (Salvia miltiorrhiza, UniProt A0A059PRJ2 1-160)
T1 sequence: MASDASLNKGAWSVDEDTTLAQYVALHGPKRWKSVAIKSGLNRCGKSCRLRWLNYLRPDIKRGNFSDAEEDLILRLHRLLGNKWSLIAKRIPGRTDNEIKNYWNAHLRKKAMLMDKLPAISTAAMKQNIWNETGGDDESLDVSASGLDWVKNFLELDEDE
Experiment: EMSA; Invitrogen EMSA kit, probe:protein mass ratio 1:15, 10 µL; protein eluted in 50 mM NaH2PO4, 300 mM NaCl, 250 mM imidazole pH 8.0; binding buffer and temperature not given
Details: protein: recombinant; tags: His (pET32a fusion); blunt

| Binder | binding result |
| --- | --- |
| B1 | binds |
| B2 | binds |
| B3 | binds |
| B4 | binds |
| B5 | binds |
| B6 | binds |
| B7 | binds |
| B8 | binds |
| B9 | binds |
| B10 | binds |
| B11 | binds |
| B12 | binds |
| B13 | binds |
| B14 | binds |
| B15 | binds |
| B16 | binds |
| B17 | binds |
| B18 | binds |
